This is an account of results in patent US20210380702A1 (Regeneron, published 2021).

Values joined by “and” are separate entries in the source; they are usually repeats but may differ in a detail not shown here. Identical values can stand only once. Where only a bound is given, the exact number is not on record here.

Assay [1] concerns the target T1, full length human PD-L1 (amino acids 1 to 290 of NP_054862.1) on transfected cells (human, UniProt Q9NZQ7 19-290).
T1 construct: also called HEK293/hPD-L1; Raji/hPD-L1
Briefly: FACS, 100 nM antibody, HEK293/hPD-L1 cells. As to the method:
(§1) The binding of anti-PD-L1 antibodies to a human embryonic kidney cell line (HEK293; ATCC, #CRL-1573) stably transfected with full length human PD-L1 (amino acids 1 to 290 of accession number NP_054862.1) (HEK293/hPD-L1) was determined by FACS.
(§2) For the assay, adherent cells were detached using enzyme-free dissociation buffer and blocked with complete medium. Cells were centrifuged and resuspended at a concentration of 2.8×10\hat{ }6 cells/mL in cold PBS containing 2% FBS. […] Cells were washed with D-PBS containing 2% FBS to remove unbound secondary detection reagents and fluorescence measurements were acquired using a HyperCyte (IntelliCyt, Inc.) flow cytometer. Data was analyzed using HyperCyte software.

For assay [2], the target named is T2, recombinant human PD-L1 (amino acids 19-239 of NP_054862.1) expressed with a C-terminal mouse IgG2a Fc tag (human).
T2 construct: called dimeric; also called hPD-L1-mFc
The assay is described as follows: competition ELISA: 8 nM hPD-L1-mFc binding to coated hB7-1-hFc-6His. As to the method:
(§3) The ability of monoclonal anti-PD-L1 antibodies to block human PD-L1 from binding to its binding partners, the human PD-1 and the human B7-1 receptors, was measured using two competition sandwich ELISA formats.
(§4) A dimeric human PD-1 protein comprised of a portion of the extracellular domain (amino acids 25-170 of accession number NP_005009.2 with a C93S change) that was expressed with a C-terminal hFc tag (hPD-1-hFc; SEQ ID: 350) and a dimeric human B7-1 protein comprised of a portion of the extracellular domain expressed with C-terminal hFc tag and hexahistidine tags (hB7-1-hFc-6His; R&D Systems, #140-B1) were separately coated at 2 μg/mL on a 96-well microtiter plate in a PBS buffer overnight at 4° C. […] These antibody-protein complexes were then incubated for 1 hour at room temperature (RT). […] The complexes were allowed to bind to the coated plates for 1 hour at RT. […] Samples were developed with a TMB solution (BD Biosciences, #51-2606KC and #51-2607KC) to produce a colorimetric reaction and neutralized with 1M sulfuric acid before measuring absorbance at 450 nm on a Victor X5 plate reader. Data analysis used a sigmoidal dose-response model within Prism™ software.
On the technique in general: An ELISA detects its analyte on a solid surface through an enzyme-linked reagent.

In assay [3] the target is T1, full length human PD-L1 (amino acids 1 …). The assay is described as follows: FACS, 100 nM antibody. As to the method: as §1, §2
Background: Flow cytometry measures light scatter and fluorescence of single cells or particles in a stream.

Assay [4] has as its target T2, recombinant human PD-L1 (amino acids …). Briefly: competition ELISA: 0.5 nM hPD-L1-mFc binding to coated hPD-1-hFc. As to the method:
as §3, §4

In assay [5] the target is T3, recombinant cynomolgus monkey PD-L1 expressed with a C-terminal mouse IgG2a Fc tag (cynomolgus monkey).
T3 construct: also called MfPD-L1-mFc; monkey PD-L1-mFc
Briefly: SPR (Biacore), mAb captured, 37C.

Assay [6] addresses T1, full length human PD-L1 (amino acids 1 …). The assay is described as follows: cell-based or functional assay.
The target in assay [7] is T4, recombinant human PD-L1 (amino acids 19-239 of NP_054862.1) expressed with a C-terminal human IgG1 Fc tag (human).
T4 construct: also called hPD-L1-hFc
The assay is described as follows: SPR (Biacore 3000): 100 nM hPD-L1-hFc + 500 nM mAb on captured hPD-1-mFc, 25C. As to the method:
Next, inhibition studies for anti-PD-L1 monoclonal antibodies expressed with human Fc were performed on Biacore 3000 instrument. […] The entire experiment was performed at 25° C. in HBST running buffer (0.01 M HEPES pH7.4, 0.15M NaCl, 3 mM EDTA, 0.05% v/v Surfactant P20). The real-time binding responses were monitored during the entire course of the experiment and the binding response at the end of every step was recorded.
A general note: SPR reads the build-up and loss of mass on a sensor chip optically.

T4 sequence (chain, as listed by the source limits assumed): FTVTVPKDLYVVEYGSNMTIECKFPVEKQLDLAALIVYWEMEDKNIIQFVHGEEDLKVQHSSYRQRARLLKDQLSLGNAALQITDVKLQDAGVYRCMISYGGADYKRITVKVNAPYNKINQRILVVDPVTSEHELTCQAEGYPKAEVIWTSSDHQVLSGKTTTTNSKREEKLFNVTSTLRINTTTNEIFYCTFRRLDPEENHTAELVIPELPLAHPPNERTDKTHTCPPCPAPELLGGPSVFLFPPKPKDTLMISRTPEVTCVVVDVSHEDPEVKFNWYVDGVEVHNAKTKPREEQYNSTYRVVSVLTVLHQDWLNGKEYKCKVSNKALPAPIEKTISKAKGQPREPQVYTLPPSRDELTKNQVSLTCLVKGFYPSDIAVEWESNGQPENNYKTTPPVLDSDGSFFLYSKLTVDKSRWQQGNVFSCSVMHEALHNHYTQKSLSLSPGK
T3 sequence (chain, as listed by the source limits assumed): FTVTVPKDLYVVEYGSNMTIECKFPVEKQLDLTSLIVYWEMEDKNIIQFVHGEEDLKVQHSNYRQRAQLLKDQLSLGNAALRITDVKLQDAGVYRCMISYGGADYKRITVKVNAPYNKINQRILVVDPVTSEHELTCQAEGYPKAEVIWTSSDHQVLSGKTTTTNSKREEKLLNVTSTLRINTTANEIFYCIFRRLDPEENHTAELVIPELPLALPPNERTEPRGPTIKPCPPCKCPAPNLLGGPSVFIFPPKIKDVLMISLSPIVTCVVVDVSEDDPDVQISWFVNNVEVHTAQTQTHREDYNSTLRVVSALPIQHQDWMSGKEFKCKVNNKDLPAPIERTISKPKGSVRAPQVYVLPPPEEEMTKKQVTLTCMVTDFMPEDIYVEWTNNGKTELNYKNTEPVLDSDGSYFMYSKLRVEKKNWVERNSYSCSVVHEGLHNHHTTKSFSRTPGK
T1 sequence (Q9NZQ7 19-290 limits assumed): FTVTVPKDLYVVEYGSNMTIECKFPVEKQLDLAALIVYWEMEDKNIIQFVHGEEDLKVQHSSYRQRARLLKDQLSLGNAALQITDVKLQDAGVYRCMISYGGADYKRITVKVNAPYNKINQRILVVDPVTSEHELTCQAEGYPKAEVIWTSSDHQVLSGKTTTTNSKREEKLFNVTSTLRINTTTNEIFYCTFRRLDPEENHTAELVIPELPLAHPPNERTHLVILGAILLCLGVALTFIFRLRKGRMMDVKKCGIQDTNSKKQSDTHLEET
T2 sequence (chain, as listed by the source limits assumed): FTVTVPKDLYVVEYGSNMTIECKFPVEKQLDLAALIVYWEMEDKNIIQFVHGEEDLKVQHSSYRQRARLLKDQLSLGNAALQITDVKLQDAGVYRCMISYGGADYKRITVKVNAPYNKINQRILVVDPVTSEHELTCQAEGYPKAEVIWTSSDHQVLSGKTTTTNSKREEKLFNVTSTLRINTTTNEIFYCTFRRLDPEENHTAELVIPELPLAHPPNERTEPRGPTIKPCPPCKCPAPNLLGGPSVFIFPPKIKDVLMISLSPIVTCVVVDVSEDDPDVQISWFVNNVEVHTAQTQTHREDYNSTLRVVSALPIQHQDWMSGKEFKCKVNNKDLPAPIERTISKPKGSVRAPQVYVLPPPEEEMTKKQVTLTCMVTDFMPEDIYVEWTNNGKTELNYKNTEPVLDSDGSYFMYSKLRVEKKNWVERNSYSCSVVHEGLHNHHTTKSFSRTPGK

B1: H1H9396P2 (antibody, V domains shown)
VH: QVQLVQSGAEVEKPGASVKVSCKASGYIFTHYGISWVRQAPGQGLEWVGWISPYNGYTDYAQKLQGRVTLTTDTSTTTAYMELRNLRSDDTAMYYCSRGRGPYWSFDLWGRGTLVTVSS
VL: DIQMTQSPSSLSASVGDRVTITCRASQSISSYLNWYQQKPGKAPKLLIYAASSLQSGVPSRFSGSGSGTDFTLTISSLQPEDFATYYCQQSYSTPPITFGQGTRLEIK
notes: human IgG1 Fc (H1H prefix)
For orientation: IC50 means the concentration that gives 50% inhibition. One may read the Kd as the equilibrium constant for the complex coming apart. As usually defined, the koff is a measure of how fast the partners let go of each other. The kon is the rate constant with which the complex forms. With B1, the MFI in assay [1] was determined as 228000 MFI. The “% maximum blocking” value in assay [2] turned out to be 8%. Further, in assay [3], the “Ratio of HEK293/hPD-L1 to HEK293 parental cells” value (shortened to “Ratio of HEK293/hPD-L1”) was 97. Further, in assay [4], the “% maximum blocking” value turned out to be 59% and the IC50 was below 0.25 nM. In assay [5], the Kd turned out to be 0.319 nM, the koff was determined as 0.000502 s⁻¹, the kon came to 1.57e+06 M⁻¹ s⁻¹ and the t1/2 came out at 23 min. In assay [6], the “Emax mean [%] @ 100 nM” value worked out at 103%. The “% Blocking” value in assay [7] was -193%.

B2: H1H9387P2 (antibody, V domains shown)
VH: QVQLVQSGAEVKKPGSSVKVSCKASGGTFNTYVLSWVRQAPGQGLEWMGEIIPILGAANYAQNFQGRVTFTTDESTNTAYMDLSSLRSEDTAVYYCARDRTSGGFDPWGQGTLVTVSS
VL: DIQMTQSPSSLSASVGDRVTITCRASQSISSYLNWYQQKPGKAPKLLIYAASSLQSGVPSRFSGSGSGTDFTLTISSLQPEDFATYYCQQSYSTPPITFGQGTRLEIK
notes: human IgG1 Fc (H1H prefix)
In assay [1], B2 returned an MFI of 324000 MFI. Moreover, in assay [2], the “% maximum blocking” value is 100% and the IC50 was below 4 nM. For the same molecule, in assay [3], the “Ratio of HEK293/hPD-L1” value was determined as 263. In addition, in assay [4], the “% maximum blocking” value was 100% and the IC50 is below 0.25 nM. Also, in assay [5], the Kd was 0.139 nM and 0.161 nM; the koff was 0.000474 s⁻¹ and 0.000465 s⁻¹; the kon is 3.41e+06 M⁻¹ s⁻¹ and 2.9e+06 M⁻¹ s⁻¹; the t1/2 was 24 min and 25 min. For the same molecule, in assay [6], the “Concentration [M] of Antibody at 125% activation” value amounted to 1.86e-11 M and the “Emax mean [%] @ 100 nM” value was found to be 141%. The “% Blocking” value in assay [7] is 91%.

B3: H1H9382P2 (antibody, V domains shown)
VH: EVQLVESGGGLVQPGGSLRLSCAASGFTVGTNFMNWVRQAPGKGLEWVSAIYSGGTANYADSVKGRFTISRDTSRNTLYLQMNSLRTEDTAVYYCARGGGMDVWGQGTTVTVSS
VL: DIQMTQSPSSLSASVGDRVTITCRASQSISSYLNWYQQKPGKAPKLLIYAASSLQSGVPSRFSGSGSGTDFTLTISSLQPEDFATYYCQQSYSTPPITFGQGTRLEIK
notes: human IgG1 Fc (H1H prefix)
Molecule B3 registered an MFI in assay [1] of 206000 MFI. Moreover, the “% maximum blocking” value in assay [2] was -30%. In addition, in assay [3], the “Ratio of HEK293/hPD-L1” value was determined as 140. In addition, in assay [4], the “% maximum blocking” value was found to be 39% and the half-maximal inhibitory concentration (IC50) is below 0.25 nM. Moreover, in assay [5], the Kd amounted to 0.825 nM, the koff was 0.000235 s⁻¹, the kon is 284000 M⁻¹ s⁻¹ and the t1/2 turned out to be 49 min. Further, the “Emax mean [%] @ 100 nM” value in assay [6] came to 86.5%. In addition, in assay [7], the “% Blocking” value is -448%.
